# Laboratory results reported in a protein production outcome set (Wang et al. 2014).
# Assay: label from the status in PepcDB records
row,Sequence,protein production
1,MDYLNYEEIQSLKNSLLHNIKHTYISRYMILTALYTGMRPGEIAVLTWSDIDFKNQTININKSYNHDKGRVDNYDSSEIDKSTKNTNSVRIIKVDKKFLDILSQLKQNDHEKIFIGKDGTIPTSNAVNKVWRKQLEKLNIDKPSFHFHSVRHTHVALLPFKGVPLYAISKRLGHANMSTTAKKYAYMLDELKQQVRLEHHHHHH,not failed
2,MDYLPVEVIGNILSRLGGARDVVIASATCRKWREACRKHLQTLSFNSADWPFYRDLTTNRLEILITQTIFQTMGLQGLSIMMDDANKFSAATVIAWLMYTRDTLRRLSYNVRTTPNVNILEICGRQKLEALVLAHNSITGVEPSFQRFPCLKSLSLSYVSISALDLNLLLSACPMIESLELVSLEIAMSDAQVTIELSSPTLKSVYFDGISLDKFILEADSIEFLHMKDCVLELFELIGNGTLKHFKLDDVSVIHLDIMETSESLEVVDVNHFTMVWPKFYQMISRSQKLKKLRLWDVVFDDDDEIIDVESIAAGFSHLTHLSLSYDLKDGAAHYSLQGTTQLENVTVLELGWTVINDVFSIWVEELLRRCPNLKKLIIYGVVSETKTQGDCQILATFTWSIVQLMRKYIHVEVQFEYE,failed
3,MDYRQLHRWDLPPEEAIKVQNELRKKIKLTPYEGEPEYVAGVDLSFPGKEEGLAVIVVLEYPSFKILEVVSERGEITFPYIPGLLAFREGPLFLKAWEKLRTKPDVVVFDGQGLAHPRKLGIASHMGLFIEIPTIGVAKSRLYGTFKMPEDKRCSWSYLYDGEEIIGCVIRTKEGSAPIFVSPGHLMDVESSKRLIKAFTLPGRRIPEPTRLAHIYTQRLKKGLFLEHHHHHH,not failed
4,MEAATWILFTLGVSLILAKIGDSLVERFELPGVLGELLVGIILGNLVYFGVISSEYLPITAGSSEVIDFMAKLGVVFLLFLGALDTDLNLIKRTGITAVVSTILGVFVPLILGYLGLRWLGYDNKEAFAGGVLLTATSIGLTVRVMMDLGVLRSEVGAASLSASVIDDFLGIALIIFAVGSGSLLGLGIKIIIFFLITGVVGWYFIDHYLKFAERLGVEKGVLGFVLGMMLIFSALAEGWFAAAIEGAFMMGLILSKTAEGKRLLEEVRSIGYGFLIPIFFVHTGAMLNFKVFENLEAIKLAVVLSVIAIVGKVAGRGFGAWITAWGRGKDFLFTRENFRMSFQMGIGSIPRTEVALVALMVAIHGGAISPDDAPKFIAATLIFITISVLITPPLLKWAFREEILAQKKLLLENRKEKIESKKRGTR,failed
5,MEAFFRHAERVAHPSPRLRLLLALGHRMRGELDRGLAVLEGFPEEDPALLAEALLAQGTLLGLKGAHGEAEDVFSQGVALGETPLRARFLTSRGAARIRLGRYREAAEDLEEALFLSRKERLKEVEALALHNLAIARHHLGELAEAVRLYREVLPLKTAPLSRAYTLLSLGEALSYLGRFLEAKRTLFRAREEAWASGDYRAMGYTLLNLADLYREAGLPEAEGLYREAEAHLEKAHDPYALGLVHLGLARLGAKGSLERARALFQEGGSPGELAEWHLVAGRLCGRPEHFEEALRLAEKAGAGRLLLLARLELFLKAPSPGEAKALAREVLKAGFQDFWLWERAFPLPLLAFEAGEEGLLEALLAGVGWLRARSLKALEARTEEGPLPLPSRKELLLLLLLWRRKALEAEALARLLFPGSKNPKKRLQVAVHHLREALDPDLVRLEGEAYRAYLPPGVWWDARVKEGLLRWARRLSLPQAQARVEEALPGRFSPQAYLTDP,failed
6,MEALVRCLRSGQFLLIIDNLESVLQPDRQWGSLFYGDFFQAWIESGGNSKVLVTTRERPELKGFEWLTLKGLQVDEGVALLTALGIKGNLGEFVELVDGHPLLLRLVADLLKEEYPQDPDLSRLADLGLGNLQQLLTDSQVVGVHRRENVGMVLVLDASFHRLSELQKALLLNISVYRGAVDSAAAVAMLPGNSAAEIEKELRNIVKRSLLVEKLNGKRRFEFQPVVLEYVRYKAGDQSEAHQRAIDYYRSVAKQPPWTTKDDVREYLEIFDHFYQLQDYDSAFDNIRVCSKFLGLCGFFVDKVELYGQLISKWKEIGERENWNYGASLTALGNAYRYLGEYQRAIELFQQSLEIFRDIGDRNGVSNSLIGLGNTYNSVGEYQRAIELFQQSLEISRDIGDRNGVGGSLMGLGNAYNSVGEYQRAIELFQQSLEISRDIGDRNGVGNSLIGLGNAYHSLGEYQRAIEFRQQSLEIFRDMGDRNGVSISLNNLGNTYYFLGEYQRAIEFHQQSLEISRDIGDCNGVGRSLNNLGNAYYSLGKYQQAIEFHQQSLEIKRDIGDRNGVGTSLNNLGTAYSSLGKYQRAIELFQQSLEIKRDIGDRNGVGTSLMNLSNAYYRCGKIREAFAVWHQAESIFQELQLPFEAMPYPQWLKSLIKFAQRGWFQFILCFIFGLIAFPFALVWLILLFLWPSISSQFRR,failed
7,MEAPKMALSDVKCRNARPASKLVKLSDGGGLQLWVQPTGSRLWRLAYRFGGKQKLLALGSYPLISLAEAREARDTAKRLLLRGIDPAQERKSQKASAEDTFRSIAEDYVDKLKKEGRADRTITKVKWLLDFAYPTFGDKSVREIDPATILAALRSVEVRGRYESARRMRSTIGSVFRYAIATARADVDPTIALRGALVGPTVTPRAAVTDPKALGGLLRAINAFDGQPTTRAALKLMALLFPRPGELRAAGWDEFDFESSVWSIPEGRMKMRRPHRVPLSTQAVSVLTSLREISGGGSLLFPSVRSGSRPISDNTLNAALRRMGYGKEEATAHGFRATASTLLNECGKWHPDAVERQLAHIENNDVRRAYARAEHWEERVRMMQWWADYLDELESKNSRVVSIGGREASLLSIHPREGLVWKPTATVRQTTSRTSNLRKSH,failed
8,MEATAVNPSIVTASRTVQPYRRLSTLSLRFPTYRNKRVSPFTLTITRCSTTKSREAGQDSSISLKRGLVFDLGVSKDSWHSEEIGSPVVKRFLSDNEERWYMWYHGSSKQNPVSDSIGLAVSNNGIHWERGNGKVESSEDVGLVMSCGEDWWGFDTASVRPGEVVIMSSSKVRANSSVYWMYYTGYTKETVEFQSQDFTSVLGNPERFHLCDENAEKSRVYYRSLPGLAISQDGRHWARIEGEHHSGALFDVGSEKDWDFLYIASPHVVFHGDGDLRMYYHSFDEKTGEFCIGMARSRDGIKWLKLGKILGGRKSEKDGLGFFDELGGRYPCVTRNKRDESYVMAYEGVDRTGKTSIGFAVSKDGIKDWKRVQDEEAVIAVGEGGAWDNEGVGCPYLIEMDGDSDHQWRLYYRGVGNGGRTAMRGEQFELEEDRDGPLELLQSLRSKATELLLREEWEESIKVYTEFIDLSRRQVSSTGGSDPDPDSIAKLRKSLCLALCNRAEARARLRDFLEAMRDCDQALEIEKTHFKTLLCKGKVLLGLSKYSLALECFKTALLDPQASDNLETVTVYIEKCKKLEFQAKTGAFDLSDWILSEFRGKCPELAEFIGSIEIKKSELSGRGLFATKNIVAGTLVLVTKAVAIERGILGNGECGEKAQLIMWKNFVEEVTESVRKCGRTRRVVSALSTGQGEDSLEIPEIALFRPDEAFETCGDWKQSLDTEKLLSILDVNSLVEDAVSGKVMGKNKEYYGVGLWTLASFINHSCIPNARRLHVGDYVIVHASRDIKTGEEISFAYFDVLSPLEKRKEMAESWGFCCGCSRCKFESVLYATNQEVREFEMGLERGVDAGNAVYMVEEGMKRWKVKGKDKGLLRASYWGVYDEIYNSERLMKRWGRKIPTMEVVVDSVSDVVGSDERLMKMAVEGMMKKHGGFSNIVEMEKIMKLGKGVYGKVVSKKKAMKTLLGIE,failed
9,MEAWIFEIMRAVGRFFLHPAVYVFLISSIFVGYLRMLRERKDFSFKVYDIWFELRTSLLAGVKYGLIVSIITIGLGLVVSKASLWAILLWTLLFGLTAMYRYLSAAYTFSVAIVCVLLSSKLPVSFLQLGEGEENTIVSLAILLGIMLVVEGLLISKNAVGYSTPKIRKGKRGLKIGLHESKRLWIVPIFILVPGEAVTQFISWWPVVSIGSHTYSLFLVPFLIGFMRRIRSYEPTEALLFTGRRVYGLAGLVLVLGIASYWWHVLAIIAMGVAMLGRFTISMQEKIADETRPAYFAARNDGLVVLDTIPNTIGAELNLLPGEMITKVNGVIPRSAEEFYDALQTKTTGAFCKLEVLDTNGELRLAQTALYAGGHHELGIVFVQQEHEWDSEAM,failed
10,MECAEKVEAEIPGQAGRRAGKPSRTYYLEVYGCSLSEFDALIMASRLEEAGYRRVARPEDADVILVNTCAVRLDTEQRIAERLEKLRLQLPDRKYVVAGCLVKARPGLVARLVPEASLLAPQAVERVLDAVDALESGRRLVVLDGRRDTRSMPQLPITDAVVTVMIQEGCLGDCSFCITKVARRQVRSYSPRVIVERVREAVEKGAREIRLTGTDVAVYGVDLPGKPNLADLVAAILEKVEGDYRIRVGMMTPDQVEPYLDSLLDVYRDERVYKYFHLPVQSGDDEVLKIMKRNYTVSEYKAIHRRIKSRFPDAMIATDIIVGHPGETWEAFWNTVRLVEELRFEKVHLAQYSLRPHTEAASMEQVPDSVKKERSRILGKIVAEIGLEINGSYVGRRVRALVTERSWREGSMTGRLDNYTPIILPYEERAMGRWVYAEVEEATFFDLRSSKFEPAPLEHHHHHH,failed
11,MEDFYLNSRGLAGYFEAQWFDKFVEDKQVDAITSESKLVPLSFAKSSHCSQVADFITQAVSKNGKPPHALLGVGAALGRNYYELVQRLDSLKQATLVEPSGMLLNGLKQLLVEEQQVELTYIHGLNTLKTVEVDNRELVQNCAHVDLELINQPLEKDTVSKFYDLVVCLNVLDQCESPLRVINALKQATQIGGVLVVSCTYQWNAKHIKDRAEAVDDIKAYFGEDWRFVSEAEHEYRMRFNERYAMQFLSHVVAYVRTT,failed
12,MEDGIENTSPFNGNGESGFFKLPDREILESFRLQKVFPDSPFGFPSGHVALTTALWGGASRVFNSRTAGRLAPMVVLLMAFSRMYLGRHFLGDVIGGAALGLTLLVVFTYFLKSPLKDDFFEKENFKLAFRQKNLFFYSAMFAVPVVFVSLSLISGEVAGFFLGTNTAYLLIIRKGLPEDEGSTGQRALRVFITLMMFGLSALVLDAGFGIIGIAGYPDDTLIEFLKSFIPAFTIWISVSICIKLGLYNIASTEQIE,failed
13,MEDHHHLPENLKPFFHRATEAQERLAKLEAALASTKTDIPDAKLVEENKQLQSKLEEANATVKQEQTKVKDLTIENAKHKYRILHLVRALKDADQKLERLSK,failed
14,MEDIIVVENLVKKFGDFEAVKGVSFSVKKGEIFAFLGPNGAGKTTTIHMLTTLLKPTSGKAWVAGHDVLKEPREVRRKIGIVFQDQSLDRELTAYENMYIHGKIYGYGGEKLKKRILELLEFVELLEFKDKPVKTFSGGMARRLEIARSLIHEPEVLFLDEPTIGLDPHTRAHMWEYISKMKKEHNMTIFLTTHYMDEAEQLADRVAIIDHGKIIALGTPTELKRMVGKEIIYVRFSEAVECLEGDFIESCRKLPDGRLELNVEDSGRAIPKIFELAQQKGLKIEEITYHKPTLNDVFLHLTGRELREEGPENSFKTMARMRMRMRR,not failed
15,MEDPLGRLEWIKFLSAFYDKEDKAENYFNQQVSKVMATENKVSSLKKPKVAFGMVDNGKVYIPAKNSYAAKMVDMAGGDYIFKDLNNKSGYITLEDFYSKSKDADVLIYSSSKEYTPSLKSMLSAAPILKTIKPVKNKKVWCFGKDYYQAIDKTDEIIEDLASIFHPESFKGLEHHHHHH,failed
16,MEDSGAILCQISIFKDMLDQVNREIEANIQVTREIESQIGACSEIESSLSLKEPELTRSFLASQFEISGLISVTADSRNSLKLLEDEICCLRSEHSELITKTNREAVNINNCIVLDFV,failed
17,MEDSGKTFSSEEEEANYWKDLAMTYKQRAENTQEELREFQEGSREYEAELETQLQQIETRNRDLLSENNRLRMELETIKEKFEVQHSEGYRQISALEDDLAQTKAIKDQLQKYIRELEQANDDLERAKRATIMSLEDFEQRLNQAIERNAFLESELDEKENLLESVQRLKDEARDLRQELAVQQKQEKPRTPMPSSVEAERTDTAVQATGSVPSTPIAHRGPSSSLNTPGSFRRGLDDSTGGTPLTPAARISALNIVGDLLRKVGALESKLASCRNLVYDQSPNRTGGPASGRSSKNRDGGERRPSSTSVPLGDKGLGKRLEFGKPPSHMSSSPLPSAQGVVKMLL,failed
18,MEEASEGGGNDRVRNLQSEVEGVKNIMTQNVERILARGENLEHLRNKTEDLEATSEHFKTTSQKVARKFWWKNVKMIVLICVIVFIIILFIVLFATGAFS,failed
